Source: patent US20030235860A1, “Interactions between AR, ER, TR2, and TR4” (priority 1999, published 2003)

Columns and labels:
Type in all cases: cell-based
[1] = test system: MCF7-TR2 cells; assay: MTT growth assay, MCF7-TR2 cells
Procedure: (§1) (A) Growth assays were performed by MTT method as instructed by manufacturer (Sigma). 5×10^3 MCF7-pBIG and MCF7-TR2 cells were seeded in 24-well plates and incubated in RPMI with 10% CD-FCS for 48 h. […] After 3- and 5-day treatment, cells were harvested for MTT assay. Data represents the relative folds of MTT O.D.570 values at day 5 divided by that at day 3. […] Cells were then trypsinized and fixed overnight in 70% Ethanol. After cells were incubated with 1 mg/ml RNase A (Sigma) and propidium iodide (Roche Molecular Biochemicals), the DNA contents of cells were measured by a flow cytometry. (C) Percentage of growth suppression by TR2. MCF7-TR2 cells were seeded at 5×10^3 cells per well in 24-well plates. […] The treatments were changed every two days. The indices of cell growth were determined by MTT assay. The MTT values from cells without doxycycline were set as 100% in each kind of treatment. Values are represented by the percentage of growth suppression from cells with doxycycline to that without doxycycline.

[2] = molecular target: T1, TR2 (Homo sapiens, UniProt P13056); assay: TR2-mediated transactivation reporter assay; conditions: PC-3 cells; 1 μg expression plasmid
T1 sequence (P13056 1-603): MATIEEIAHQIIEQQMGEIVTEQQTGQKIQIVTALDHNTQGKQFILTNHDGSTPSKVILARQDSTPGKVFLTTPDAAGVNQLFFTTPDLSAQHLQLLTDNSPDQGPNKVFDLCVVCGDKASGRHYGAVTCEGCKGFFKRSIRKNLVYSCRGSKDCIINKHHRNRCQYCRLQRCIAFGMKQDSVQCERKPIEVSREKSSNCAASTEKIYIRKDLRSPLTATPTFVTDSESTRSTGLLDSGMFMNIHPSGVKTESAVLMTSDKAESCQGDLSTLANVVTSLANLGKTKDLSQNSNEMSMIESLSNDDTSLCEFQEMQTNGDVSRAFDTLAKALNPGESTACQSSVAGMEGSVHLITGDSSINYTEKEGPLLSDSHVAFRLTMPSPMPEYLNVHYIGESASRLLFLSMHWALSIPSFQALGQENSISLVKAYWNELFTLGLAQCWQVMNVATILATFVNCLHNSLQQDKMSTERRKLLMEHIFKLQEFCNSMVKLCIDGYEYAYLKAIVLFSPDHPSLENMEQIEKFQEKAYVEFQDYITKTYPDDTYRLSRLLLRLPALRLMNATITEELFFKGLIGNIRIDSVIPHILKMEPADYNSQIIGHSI
Procedure: Transfections and chloramphenicol acetyltransferase (CAT) assays were performed as described previously. Yeh, & Chang, Proc. Natl. Acad. Sci. 93, 5517-5521 (1996). Briefly, 4×10^5 cells were plated in 60-mm dishes and cultured for 24 h, and then the medium was changed to phenol red free DMEM with 5% charcoal-stripped FCS 2 h before transfection. The cells were co-transfected with TR2 and/or ER expression plasmids with 2 μg of TR2-TK-CAT reporter or 1 μg of ERE-CAT reporter gene plasmid, as indicated in the Figures, by using the calcium phosphate precipitation method. A β-gal actosidase expression plasmid, pCMV-β-gal, was transfected in all transfections as an internal control for normalizing transfection efficiency. The total amount of DNA was adjusted up to 10.5 μg with parent vectors, pSG5 or pCMV in each transcriptional activity assay. […] The cells were then harvested and whole cell extracts were used for CAT assay. The CAT activity was quantitated by Phosphorlmager (Molecular Dynamics). Data are presented as means±S.D. of at least three independent experiments.
The CAT reporter assay was used to study the potential consequence of the formation of heterodimers between the TR2 and ER. […] More specifically, H1299 cells were transiently cotransfected with 2 μg of DR4-TK-CAT reporter plasmid and 3 μg of TR2 expression plasmid together with increasing amounts of the ER expression vector. […] Cells were also transfected with internal control reporter plasmid, pCMV-β-gal, as an internal control for transfection efficiency. Luciferase activity was then analyzed following manufacturer's instructions (Promega). […] Similar results were obtained when the DR4-TK-CAT reporter with DR1-HBV-LUC were replaced, another TR2 response element (FIG. 7C).
This conclusion was further confirmed by using the chimera receptor, TR2-androgen receptor (AR) ARp-TR2, which was generated by swapping TR2 proximal box (P-box) with that found in the AR. […] Luciferase activity was then analyzed following manufacturer's instructions (Promega). […]

[3] = test system: MCF7-TR2 cells; assay: Cell cycle profile by flow cytometry, MCF7-TR2 cells; conditions: 3 days, E2, or E2 with doxycycline-induced TR2
Procedure: as §1

B1: TR2: human testicular orphan nuclear receptor 2, 603 amino acids (protein, UniProt P13056 1-603, looked up)
chain: T1 sequence (P13056 1-603)
modifications: full-length
notes: human testicular orphan nuclear receptor 2, 603 amino acids
Cell growth suppressed by TR2, compared to cells without doxycycline ([1]; all-trans retinoic acid treated cells (all-trans RA)): 29-45%
Cell growth suppressed by TR2, compared to cells without doxycycline ([1]; presence of E2, 6- and 8-day treatments): 71-72%
Cell growth suppressed by TR2, compared to cells without doxycycline ([1]; under 5 μM tamoxifen treatment): 8-9%
DR1-HBV-LUC activity [2]: induced
Cells in G1 [3]: 58.1%
Cells in S [3]: 14.5%
